What all share (test): fluorescence polarization; FP: 10 nM DNA, 20 mM Tris-HCl pH 8.0, 50 mM NaCl, 5% glycerol, 1 mM TCEP, 30 min at 25 C
Background: In fluorescence polarisation assays a small probe gives low polarisation when free and higher when bound to something large.

In data set [1] the target is DNMT3BΔ214 V818M;DNMT3L MTase-like domain (human;human, UniProt Q9UBC3;Q9UJW3 215-853;179-379, V818M|). To be noted: protein: recombinant;recombinant; tags: tag (if any) removed by TEV;6xHis removed by TEV; chain copies: 2;2; label: 3'-FAM.
The target of data set [2] is DNMT3BΔ570 WT;DNMT3L MTase-like domain (human;human, UniProt Q9UBC3;Q9UJW3 571-853;179-379, |). The conditions noted are these: protein: recombinant;recombinant; tags: 6xHis-SUMO removed by TEV;6xHis removed by TEV; chain copies: 2;2; label: 3'-FAM.
Data set [3] addresses DNMT3BΔ570 R823G;DNMT3L MTase-like domain (human;human, UniProt Q9UBC3;Q9UJW3 571-853;179-379, R823G|). The conditions noted are these: protein: recombinant;recombinant; tags: 6xHis-SUMO removed by TEV;6xHis removed by TEV; chain copies: 2;2; label: 3'-FAM.
In data set [4] the target is DNMT3BΔ214 R823G;DNMT3L MTase-like domain (human;human, UniProt Q9UBC3;Q9UJW3 215-853;179-379, R823G|). The conditions noted are these: protein: recombinant;recombinant; tags: tag (if any) removed by TEV;6xHis removed by TEV; chain copies: 2;2; label: 3'-FAM.
Data set [5] addresses DNMT3BΔ214 WT;DNMT3L MTase-like domain (human;human, UniProt Q9UBC3;Q9UJW3 215-853;179-379, |). To be noted: protein: recombinant;recombinant; tags: tag (if any) removed by TEV;6xHis removed by TEV; chain copies: 2;2; label: 3'-FAM.
Data set [6] has as its target DNMT3BΔ214 D817G;DNMT3L MTase-like domain (human;human, UniProt Q9UBC3;Q9UJW3 215-853;179-379, D817G|). The conditions noted are these: protein: recombinant;recombinant; tags: tag (if any) removed by TEV;6xHis removed by TEV; chain copies: 2;2; label: 3'-FAM.
Data set [7] has as its target DNMT3BΔ214 H814R;DNMT3L MTase-like domain (human;human, UniProt Q9UBC3;Q9UJW3 215-853;179-379, H814R|). The conditions noted are these: protein: recombinant;recombinant; tags: tag (if any) removed by TEV;6xHis removed by TEV; chain copies: 2;2; label: 3'-FAM.

Chain of DNMT3BΔ570 R823G;DNMT3L MTase-like domain (Q9UJW3 179-379, chain 2 of 2, other chains not shown): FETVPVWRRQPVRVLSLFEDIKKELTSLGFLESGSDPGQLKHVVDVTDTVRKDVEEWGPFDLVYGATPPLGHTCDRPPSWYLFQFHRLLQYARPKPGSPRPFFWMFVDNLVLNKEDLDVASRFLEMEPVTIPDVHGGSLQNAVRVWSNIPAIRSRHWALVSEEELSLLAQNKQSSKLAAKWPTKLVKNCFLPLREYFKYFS
Chain of DNMT3BΔ214 D817G;DNMT3L MTase-like domain (Q9UJW3 179-379, chain 2 of 2, other chains not shown): as above
Chain of DNMT3BΔ214 V818M;DNMT3L MTase-like domain (Q9UJW3 179-379, chain 2 of 2, other chains not shown): as above
Chain of DNMT3BΔ570 WT;DNMT3L MTase-like domain (Q9UJW3 179-379, stated change not applied, chain 2 of 2, other chains not shown): as the sequence (Q9UJW3 179-379, chain 2 of 2, other chains not shown) above
Chain of DNMT3BΔ214 R823G;DNMT3L MTase-like domain (Q9UJW3 179-379, chain 2 of 2, other chains not shown): as above
Chain of DNMT3BΔ214 WT;DNMT3L MTase-like domain (Q9UJW3 179-379, stated change not applied, chain 2 of 2, other chains not shown): as the sequence (Q9UJW3 179-379, chain 2 of 2, other chains not shown) above
Chain of DNMT3BΔ214 H814R;DNMT3L MTase-like domain (Q9UJW3 179-379, chain 2 of 2, other chains not shown): as above

B1: 49-bp FAM dsDNA (dsDNA)
DNA 1: AAAACGAAAAAAAAAAAAAAAAAAAAAAAAAAAAAAAAAAAAAAAAAAA
DNA 2: TTTTTTTTTTTTTTTTTTTTTTTTTTTTTTTTTTTTTTTTTTTCGTTTT
The Kd is a measure of binding affinity in units of concentration. Turning to B1, the dissociation constant (Kd) in data set [1] turned out to be 7.21 ± 0.78 µM; in data set [2], 0.07 ± 0.007 µM; in data set [3] it was 0.171 ± 0.008 µM; in data set [4], 5.39 ± 0.58 µM; in data set [5] it was 2.73 ± 0.26 µM; in data set [6], 58 ± 6.15 µM. The dissociation constant (Kd) in data set [7] was 299 ± 55.8 µM.

These data come from publication PMC11408749, “Molecular mechanisms for DNA methylation defects induced by ICF syndrome‐linked mutations in DNMT3B”.
